Assay results reported in paper PMC4551932, “Different motif requirements for the localization zipcode element of β-actin mRNA binding by HuD and ZBP1”.

Tests used:
HuD (GST-HuD) [1] = biological target: T1, HuD (GST-HuD) (Rattus norvegicus (rat), UniProt O09032 1-385); assay: competition EMSA; HuD displaces ZBP1 (4 pmol) from zipcode RNA; REMSA: 50 mM Tris-HCl pH 7.0, 150 mM NaCl, 5 mM MgCl2, 0.2 mM DTT, 0.25 mg/ml tRNA, 0.25 mg/ml BSA, room temperature 20 min; 20 fmol RNA and 3 pmol protein in 20 ul; conditions: protein: recombinant; tags: GST N-terminal (pGEX-2T); label: biotin at both ends; stem-loop, 16-nt terminal loop (predicted)
T1 sequence (O09032 whole entry): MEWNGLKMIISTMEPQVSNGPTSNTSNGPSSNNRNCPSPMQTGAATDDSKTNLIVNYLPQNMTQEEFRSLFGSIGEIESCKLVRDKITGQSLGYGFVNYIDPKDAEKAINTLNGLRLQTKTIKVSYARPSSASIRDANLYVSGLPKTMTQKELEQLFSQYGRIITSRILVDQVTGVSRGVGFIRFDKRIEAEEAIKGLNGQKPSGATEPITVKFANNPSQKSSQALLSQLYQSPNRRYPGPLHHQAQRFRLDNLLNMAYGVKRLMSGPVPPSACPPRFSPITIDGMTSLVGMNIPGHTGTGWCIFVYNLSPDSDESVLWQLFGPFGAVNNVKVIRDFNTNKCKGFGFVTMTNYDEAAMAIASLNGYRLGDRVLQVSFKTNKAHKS

ZBP1 (His-ZBP1) [2] = biological target: T2, ZBP1 (His-ZBP1) (Rattus norvegicus (rat), UniProt Q8CGX0 1-577); assay: EMSA; apparent Kd; REMSA: 50 mM Tris-HCl pH 7.0, 150 mM NaCl, 5 mM MgCl2, 0.2 mM DTT, 0.25 mg/ml tRNA, 0.25 mg/ml BSA, room temperature 20 min; 20 fmol RNA and 3 pmol protein in 20 ul; conditions: protein: recombinant, tags: 6xHis (replaces GST in pGEX), label: biotin at both ends
T2 sequence (Q8CGX0 whole entry): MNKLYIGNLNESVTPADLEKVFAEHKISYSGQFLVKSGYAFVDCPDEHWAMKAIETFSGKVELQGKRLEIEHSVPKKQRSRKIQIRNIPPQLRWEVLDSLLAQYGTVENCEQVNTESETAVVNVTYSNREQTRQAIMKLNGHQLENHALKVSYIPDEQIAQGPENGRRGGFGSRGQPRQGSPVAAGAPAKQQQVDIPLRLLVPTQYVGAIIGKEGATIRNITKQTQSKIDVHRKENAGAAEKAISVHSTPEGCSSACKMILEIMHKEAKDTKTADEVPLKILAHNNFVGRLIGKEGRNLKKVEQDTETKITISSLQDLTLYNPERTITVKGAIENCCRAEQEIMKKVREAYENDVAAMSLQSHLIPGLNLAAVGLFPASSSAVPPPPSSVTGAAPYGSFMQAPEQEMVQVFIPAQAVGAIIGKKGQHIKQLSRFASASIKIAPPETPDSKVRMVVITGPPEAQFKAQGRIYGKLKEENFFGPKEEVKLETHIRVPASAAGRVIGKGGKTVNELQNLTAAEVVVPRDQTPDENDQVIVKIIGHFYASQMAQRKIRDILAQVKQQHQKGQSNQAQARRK

HuD (GST-HuD) [3] = biological target: T1, HuD (GST-HuD); assay: EMSA; no difference from wild type; REMSA: 50 mM Tris-HCl pH 7.0, 150 mM NaCl, 5 mM MgCl2, 0.2 mM DTT, 0.25 mg/ml tRNA, 0.25 mg/ml BSA, room temperature 20 min; 20 fmol RNA and 3 pmol protein in 20 ul; conditions: protein: recombinant; tags: GST N-terminal (pGEX-2T); label: biotin at both ends; disrupted structure (predicted)
HuD (GST-HuD) [4] = biological target: T1, HuD (GST-HuD); assay: EMSA; REMSA: 50 mM Tris-HCl pH 7.0, 150 mM NaCl, 5 mM MgCl2, 0.2 mM DTT, 0.25 mg/ml tRNA, 0.25 mg/ml BSA, room temperature 20 min; 20 fmol RNA and 3 pmol protein in 20 ul; conditions: protein: recombinant, tags: GST N-terminal (pGEX-2T), label: biotin at both ends
ZBP1 (His-ZBP1) [5] = biological target: T2, ZBP1 (His-ZBP1); assay: as above; conditions: protein: recombinant, tags: 6xHis (replaces GST in pGEX), label: biotin at both ends
[6] = stem-loop, 10-nt terminal loop (predicted)

B1: WT zipcode (rat, 54 nt) (structured_RNA)
RNA: CGGACUGUUACUGAGCUGCGUUUUACACCCUUUCUUUGACAAAACCUAACUUGC
HuD (GST-HuD) [1]
  IC50: 171 nM
ZBP1 (His-ZBP1) [2]; stem-loop, 16-nt terminal loop (predicted)
  Kd: 28.1 nM

B2: AAMTCG zipcode (structure-disrupted mutant) (structured_RNA)
RNA: CGGACUGUUCCUGGGCUGCGUUUUACACCCUUUCUUUGACAAAACCUAACUUGC
modifications: structure disrupted; ACACCC and U-rich motifs intact
HuD (GST-HuD) [3]
  binding result: binds
ZBP1 (His-ZBP1) [2]; disrupted structure (predicted)
  Kd: 315 nM

## CGGACUGUUACUGAGCUGCGGACAAAACCUAACUUGC (structured_RNA, ACACCC and UUUCUUU deleted) [delta(ACACCC/U-rich) zipcode]
HuD (GST-HuD) [4]; altered structure (predicted)
  binding result: no binding
ZBP1 (His-ZBP1) [5]; altered structure (predicted)
  binding result: no binding

B3: chicken zipcode (structured_RNA)
RNA: ACCGGACUGUUACCAACACCCACACCCCUGUGAUGAAACAAAACCCAUAAAUGC
HuD (GST-HuD) [4]
  binding result: no binding
ZBP1 (His-ZBP1) [2]
  Kd: 78.8 nM

## CGGACUGUUACUGAGCUGCGUUUUUUUCUUUGACAAAACCUAACUUGC (structured_RNA, ACACCC deleted) [delta-ACACCC zipcode]
HuD (GST-HuD) [4]; [6]
  binding result: binds
ZBP1 (His-ZBP1) [5]; [6]
  binding result: binds
